Results taken from patent publication US20070071744A1.

Experiments:
Assay in all cases: PepSpot peptide array
peptide 117 (human) = target: T1, peptide 117 (human)
T1 sequence (peptide, N-terminus acetylated): SFTNKVFTTETSR

peptide 118 (human) = target: T2, peptide 118 (human)
T2 sequence (peptide, N-terminus acetylated): TNKVFTTETSRSI

peptide 7 (human) = target: T3, peptide 7 (human)
T3 sequence (peptide, N-terminus acetylated): LCLGRVPAQSGPL

B1: monoclonal antibody hGP 5C4 (antibody, V domains shown)
VH: EVKLQESGGGLVQPGRSLKLSCTASGFTFSDYFMSWVRQAPTRGLEWVASISSGGASAYWRDSVKGRFTISRDNAKSALYLQMDSLRSEDTATYFCARGELDFDYWGQGVMVAVSS
VL: ADPNSTLLSASVGDRVTLNCTASQNVYKNLAWYQQKLGEAPRLLLYSANSQTGIPSRFSGSGSGPDFTLTISSLQPEDVASYFCQQYYSGNTFGAGTKLELKR
- LU (Light Units) (peptide 117 (human)): 472 LU
- LU (Light Units) (peptide 118 (human)): 336 LU
- LU (Light Units) (peptide 7 (human)): 292 LU
